Columns and labels:
[1] = biological target: T1, myc-tagged HSP-1 (^mycHSP-1) (Caenorhabditis elegans, UniProt P09446 1-640); experiment: summary sentence of Example 5 on the earlier binding assays
T1 construct: Bacterially expressed from pET-^mycHSP-1; also called C. elegans Hsp70 homolog; Hsp70 ortholog HSP-1; not shown: N-terminal myc tag introduced 5' of the cDNA by PCR (pET21a)
Protocol: (§1) Binding of UNC-45^FLAG, ^mycCHN-1, ^mycCHN-1^ΔU-box, ^mycCHN-1^ΔTPR, ^mycCHN-1^Δ, ^mycUFD-2, ^mycUFD-2^{ΔU-box,} ^mycHSP-1 to GST-UFD-2 or GST-CHN-1 was done in buffer A [10 mM Tris pH 8, 10 mM DTT, Complete protease inhibitors (Boehringer)]+150 mM NaCl at 4° C. for 60 min. Glutathione-Sepharose beads were washed at least five times in buffer A with 0.1% Triton X-100 and 150 mM NaCl and bound proteins were eluted with SDS-PAGE sample buffer. Sonicated lysates from wild-type worms expressing the transgene P_unc-54::unc-45^FLAG were incubated with anti-FLAG M2-agarose beads (Sigma) in 50 mM Tris/HCl (pH 8.0), 100 mM NaCl, 10% glycerol, 1% Triton X-100 and 5 mM PMSF at 4° C. for 3 hours. Samples were precipitated with protein G-agarose beads (Amersham Pharmacia). Immunoprecipitates were washed at least five times in the same lysis buffer, were eluted with SDS-PAGE sample buffer and were separated by SDS gel electrophoresis followed by Western blotting using anti-FLAG M2 monoclonal antibodies (Sigma) or anti-Ubiquitin monoclonal antibodies (Chemicon).

[2] = biological target: T2, GST (UniProt P08515 1-218 = GST); experiment: GST pull-down with glutathione-Sepharose beads
T2 construct: Negative control of the pull-down experiments; also called GST alone; immobilized GST
Protocol: (C) Complex of CHN-1, UFD-2 and UNC-45. GST-UFD-2 was incubated with purified FLAG-tagged UNC-45 (UNC-45^FLAG) and myc-tagged CHN-1 (^mycCHN-1) together, ^mycCHN-1 or UNC-45^FLAG alone and pulled down with glutathione-Sepharose beads. GST alone with UNC-45^FLAG and ^mycCHN-1 served as the negative control.
as §1

[3] = biological target: T3, FLAG-tagged UNC-45 (UNC-45^FLAG) (Caenorhabditis elegans); experiment: GST pull-down, equimolar GST-UFD-2 or GST-CHN-1 with identical amounts of purified UNC-45
T3 construct: Purified as described in Barral 2002; also called ^FLAGUNC-45; purified UNC-45
Protocol: (B) In vitro binding of UNC-45 by UFD-2 or CHN-1. Equimolar amounts of GST-UFD-2 and GST-CHN-1 were incubated with the same amount of purified FLAG-tagged UNC-45 (UNC-45^FLAG) and pulled down with glutathione-Sepharose beads. GST alone with UNC-45^FLAG served as the negative control.
Binding of UNC-45^FLAG, ^mycCHN-1, ^mycCHN-1^ΔU-box, ^mycCHN-1^ΔTPR, ^mycCHN-1^Δ, ^mycUFD-2, ^mycUFD-2^{ΔU-box,} ^mycHSP-1 to GST-UFD-2 or GST-CHN-1 was done in buffer A [10 mM Tris pH 8, 10 mM DTT, Complete protease inhibitors (Boehringer)]+150 mM NaCl at 4° C. for 60 min. Glutathione-Sepharose beads were washed at least five times in buffer A with 0.1% Triton X-100 and 150 mM NaCl and bound proteins were eluted with SDS-PAGE sample buffer. […]
To compare their binding efficiencies, pull-down experiments were performed using equimolar amounts of GST-UFD-2 or GST-CHN-1 with identical amounts of purified UNC-45. […] Binary mixtures containing immobilized UFD-2 and either UNC-45 or CHN-1, and a ternary mixture containing all three proteins were set up and the resulting complexes analyzed by SDS-polyacrylamide gel electrophoresis. Approximately equimolar complexes were detected between UFD-2 and both CHN-1 and UNC-45 in the binary mixtures and among the three proteins in the ternary mixture. […]

T2 sequence (P08515 whole entry): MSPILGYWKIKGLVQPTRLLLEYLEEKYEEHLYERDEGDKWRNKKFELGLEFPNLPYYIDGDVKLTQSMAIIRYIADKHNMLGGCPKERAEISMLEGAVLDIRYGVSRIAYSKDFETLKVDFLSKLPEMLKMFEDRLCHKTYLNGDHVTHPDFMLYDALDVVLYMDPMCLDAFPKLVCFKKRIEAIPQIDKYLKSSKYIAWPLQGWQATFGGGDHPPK
T1 sequence (P09446 whole entry): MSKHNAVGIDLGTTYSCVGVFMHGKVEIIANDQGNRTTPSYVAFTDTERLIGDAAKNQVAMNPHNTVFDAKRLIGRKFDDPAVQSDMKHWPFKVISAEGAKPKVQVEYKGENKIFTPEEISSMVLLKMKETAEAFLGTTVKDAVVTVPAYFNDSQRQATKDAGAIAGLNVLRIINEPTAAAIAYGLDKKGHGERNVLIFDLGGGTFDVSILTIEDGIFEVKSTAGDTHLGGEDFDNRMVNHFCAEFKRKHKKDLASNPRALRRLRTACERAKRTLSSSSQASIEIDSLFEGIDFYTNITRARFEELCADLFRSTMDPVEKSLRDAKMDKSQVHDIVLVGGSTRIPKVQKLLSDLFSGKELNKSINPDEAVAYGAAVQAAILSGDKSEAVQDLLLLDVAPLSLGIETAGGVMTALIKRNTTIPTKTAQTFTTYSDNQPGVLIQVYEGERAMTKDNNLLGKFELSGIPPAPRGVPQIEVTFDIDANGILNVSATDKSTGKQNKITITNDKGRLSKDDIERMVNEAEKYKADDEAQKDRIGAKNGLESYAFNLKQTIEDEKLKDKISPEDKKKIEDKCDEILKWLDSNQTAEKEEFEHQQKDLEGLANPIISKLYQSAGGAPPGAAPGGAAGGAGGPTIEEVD

B1: GST-CHN-1 (enzyme)
chain: MSSGAEQHNTNGKKCYMNKRYDDAVDHYSKAIKVNPLPKYYQNRAMCYFQLNNLKMTEEDCKRALELSPNEVKPLYFLGNVFLQSKKYSEAISCLSKALYHNAVITNAPDIENALKRARHQKYEEEESKRIVQDVEFHTYLESLIEKDRQENSENPEELQRADMAKKRLTELTLATQEKRQNREVPEMLCGKITLELMKEPVIVPSGITYDREEIVQHLRRIGHFDPVTRKPLTENEIIPNYALKEVIEKFLDDNPWAKYEPGGMV
notes: GST fusion from pGEX-CHN-1, purified from E. coli; also called GST-tagged version of CHN-1; not shown: glutathione S-transferase (GST) encoded by vector pGEX4T1
**Q.** Does B1 bind [1]?
**A.** binds

B2: myc-tagged CHN-1 (^mycCHN-1) (enzyme)
chain: B1 chain
notes: Full-length CHN-1, bacterially expressed from pET-^mycCHN-1; also called C. elegans CHIP ortholog; not shown: N-terminal myc tag introduced 5' of the cDNA by PCR (pET21a)
**Q.** Does B2 bind [2]?
**A.** no binding

B3: GST-UFD-2 (enzyme, Caenorhabditis elegans, UniProt Q09349 1-984, looked up)
chain: MIEDEKAGLQPMDISDASVFFFQADVESKDFLTSLFDCEGKSDDRMLRYADAIIDVQNLNFDVSPQCLQSNIAEIITKFVLLSQDGSRRGLSRSFNFIDPDIIAGCREEDAIEFLLINFVRCHHELGKSGTSNCYKKTLESTRKAVFSVFVMIQRGYLESQLRSQHASLVFTKRLLEDTVSNVFLRTLVEYLASTDECDEDAITETFNPIFGILRSGIICQRFEDNKDEIVRQILRVMNLLLSIRLPSNGPRPLSNLLVNREDFLPTPSEKIQGREFGLMSFLGPFFSYGLESSARRPNHRVFVDCEEDARKYDGSVNTEQKLYFQRMDPIRTMLHQLMLPLASDQGSRNKTLRWIATIISTNDIRTRSHYDPSDVLCDHYMTNFLSVMYMFSEKIDLSKIIVDYPFLPSSLINISKETRLKMDESGAVAFASQFADRPDEYHFSTVCFFLTIAAQRLVIPPLMNQISEYSRHLKELKHKINALKEKLNTVSGFERAEVEKKLNYETEHWKLMSRHLLCVKTQAQDPALMASSMDFVDKQMKFILNLLCDNLDLLGDDSQLPTEVSQMFCALPEYFLEDALDFYIFAISNGMKLLMERNADWISRLTVLFTQYHYIKSPFLVSKLVRVLSSIQPPLWFNVVRLRMAQENLLMCMIKFYSDFEDNGDFYEKFNVRGNIQYMLEKMEEDMFYKGKFMDMARECGAEFIRFVNMVINDATWCIDESLSGLKSIHDVEKKMANKVEWDNTDQEIRNQDLGVYEEAKRKVKGWLGTAKSNLKLLLSITVNSPEPFRTPVLGERLAAMLNHNLSQLIGSKASELKVKDPRSYGWEPREFVSLLISIYLKLNMPAFVKYIAYDERTYSPEFFHNAIECMRKNSIVGFSQLESFEHLAEDVKKEYEAKAELEEEYDDVPEEFKDPIMDAIMVDPVKLPSGHVMDRAVIERHLLSTPNNPFNRAPLSHNELSPDSELKAKIQEWICQKRNSKK
notes: GST fusion from pGEX-UFD-2, purified from E. coli; also called immobilized GST-UFD-2; not shown: glutathione S-transferase (GST) encoded by vector pGEX4T1
**Q.** B3 was tested. Which “fold more UNC-45 bound than by GST-CHN-1” value [3] did it give?
**A.** ~20 fold

Reference: patent US20090053196A1 (LUDWIG MAXIMILLIANS UNIVERSITAT MUNCHEN, published 2009)
